Assay results published in patent US20030077318A1 (Scripps Research, published 2003).

Target: T1, VSV-7 (Vesicular stomatitis virus)
T1 construct: also called GYVYQGL
Assay: competitive RIA against [^125I]VSV-8 on K^bsol, P30 gel filtration, 23° C.

B1: soluble H-2K^b (K^bsol), heterodimer of truncated K^b heavy chain and murine β-2 microglobulin, purified empty from Drosophila cells (other)
alpha: GPHSLRYFVTAVSRPGLGEPRYMEVGYVDDTEFVRFDSDAENPRYEPRARWMEQEGPEYWERETQKAKGNEQSFRVDLRTLLGYYNQSKGGSHTIQVISGCEVGSDGRLLRGYQQYAYDGCDYIALNEDLKTWTAADMAALITKHKWEQAGEAERLRAYLEGTCVEWLRRYLKNGNATLLRTDSPKAHVTHHSRPEDKVTLRCWALGFYPADITLTWQLNGEELIQDMELVETRPAGDGTFQKWASVVVPLGKEQYYTCHVYHQGLPEPLTLRW
b2m: IQKTPQIQVYSRHPPENGKPNILNCYVTQFHPPHIEIQMLKNGKKIPKVEMSDMSFSKDWSFYILAHTEFTPTETDTYACRVKHASMAEPKTVYWDRDM
notes: also called H-2K^b Sol; soluble K^b
B1 showed a Kd of 53 nM.
